Data on two substances can be found in US9297028B2, “Fermentive production of four carbon alcohols” (Butamax Advanced Biofuels LLC, priority 2005, dated 2016).

Data set [1] can be described thus: Hydroxybutyryl-CoA dehydrogenase activity (rate of oxidation of NADH, absorbance at 340 nm). It is filed as biochemical. The procedure:
Hydroxybutyryl-CoA dehydrogenase activity was determined by measuring the rate of oxidation of NADH as measured by the decrease in absorbance at 340 nm. A standard assay mixture contained 50 mM MOPS, pH 7.0, 1 mM DTT and 0.2 mM NADH. The cocktail was equilibrated for 5 min at 37° C. and then the cell free extract was added. Reactions were initiated by addition of the substrate, 0.1 mM acetoacetyl-CoA. In one typical assay, the specific activity of the BHBD protein in the induced culture was determined to be 57.4 μmol mg^−1 min^−1 compared to 0.885 μmol mg^−1 min^−1 in the uninduced culture.
(§1) For enzyme activity analysis, a single colony of each strain was streaked onto a fresh plate containing SD minimal drop out medium and incubated at 30° C. for 2 days. The cells on this plate were used to inoculate 20 mL of SD drop out medium and in a 125 mL shake flask and grown overnight at 30° C., with shaking at 250 rpm. The optical density (OD600) of the overnight culture was measured, and the culture was diluted to an OD600=0.1 in 250 mL of the same medium in a 1.0 L shake flask, and grown at 30° C. with shaking at 250 rpm to an OD600 of between 0.8 to 1.0. The cells were then harvested by centrifugation at 2000×g for 10 min, and resuspended in 20 mL of 50 mM Tris-HCl buffer, pH 8.5. Enzyme assays were performed as described above.

Data set [2] can be described thus: Acetoacetyl-CoA thiolase activity in cell free extracts (decrease in absorbance at 303 nm). It is filed as biochemical. The procedure:
Acetoacetyl-CoA thiolase activity in the cell free extracts was measured as degradation of a Mg^2+-acetoacetyl-CoA complex by monitoring the decrease in absorbance at 303 nm. Standard assay conditions were 100 mM Tris-HCl pH 8.0, 1 mM DTT (dithiothreitol) and 10 mM MgCl2. The cocktail was equilibrated for 5 min at 37° C.; then the cell-free extract was added. The reaction was initiated with the addition of 0.05 mM acetoacetyl-CoA plus 0.2 mM CoA. Protein concentration was measured by either the Bradford method or by the Bicinchoninic Kit (Sigma, catalog no. BCA-1). Bovine serum albumin (Bio-Rad, Hercules, Calif.) was used as the standard in both cases. In one typical assay, the specific activity of the ThlA protein in the induced culture was determined to be 16.0 μmol mg^−1 min^−1 compared to 0.27 μmol mg^−1 min^−1 in the uninduced culture.
as §1

Where [3] appears, read: yeast strain DPD5200 (BY4743/pNY103), standard conditions.
Where [4] appears, read: yeast strain DPD5206 (BY4741/pNY102).

Take “BHBD: 3-hydroxybutyryl-CoA dehydrogenase encoded by hbd from C. acetobutylicum ATCC 824, SEQ ID NO:6”: the Hbd activity in data set [1] (yeast BY4741 containing pNY10, hbd under GPD promoter) is 1.8 U/mg; in data set [1] (yeast strain BY4741 (pNY6), in words), “good”; in data set [1] (setting [4]), 0.76 U/mg; in data set [1] (yeast, GALL promoter controlled hbd), 0.40 U/mg. The same substance gave a Hbd enzyme activity in data set [1] (setting [3]) of 0.21 U/mg.

Regarding “ThlA: acetyl-CoA acetyltransferase encoded by thlA from C. acetobutylicum ATCC 824, SEQ ID NO:2”, the ThlA activity result in data set [2] (yeast BY4741 containing pNY10 (thlA with one base deletion, truncated protein), in words) is “no ThlA activity”; in data set [2] (yeast BY4741 transformed with pNY12 (FBA1 promoter)) it was 1.66 U/mg; in data set [2] (setting [4]) it was 1.24 U/mg. In data set [2] (setting [3]), the ThlA enzyme activity stood at 0.49 U/mg.
